B1: library; numbered along this chain (parent)
chain: MAAAGGARLLRAASAVLGGPAGRWLHHAGSRAGSSGLLRNRGPGGSAEASRSLSVSARARSSSEDKITVHFINRDGETLTTKGKVGDSLLDVVVENNLDIDGFGACEGTLACSTCHLIFEDHIYEKLDAITDEENDMLDLAYGLTDRSRLGCQICLTKSMDNMTVRVPETVADARQSIDVGKTS

Variants of: B1
Experiment: scaled log2 fold change in cell abundance, elesclomol vs control (0 = silent mean, 1 = nonsense mean) (scaled log2 ratio); higher = higher viability under elesclomol (loss of FDX1 cuproptosis function)
Conditions: glucose 10 mM
Description: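 Deep mutational scan of full-length human FDX1: a pooled saturation-mutagenesis ORF library (every residue 2-184 mutated to all 19 amino acids plus stop, and silent codons where available) was expressed by lentivirus in FDX1-knockout ABC1 (14 days) or HEK293T (11 days) cells grown with elesclomol (ES) or DMSO control. Variant abundance came from ORF sequencing. The log2 fold change (ES vs control, mean of duplicates) was centred on the silent-variant mean (0) and scaled to the nonsense-variant mean (1). Higher values mean greater viability under ES, i.e. loss of FDX1 function in cuproptosis.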

[1] = with ABC1 FDX1 KO, elesclomol 5 nM, 14 days
[2] = with HEK293T FDX1 KO, elesclomol 40 nM, 11 days
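Note: variant abundance is its share of total variant reads in each endpoint sample, from next-generation sequencing of the integrated ORF PCR-amplified out of genomic DNA.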

## MAAATGARLLRAASAVLGGPAGRWLHHAGSRAGSSGLLRNRGPGGSAEASRSLSVSARARSSSEDKITVHFINRDGETLTTKGKVGDSLLDVVVENNLDIDGFGACEGTLACSTCHLIFEDHIYEKLDAITDEENDMLDLAYGLTDRSRLGCQICLTKSMDNMTVRVPETVADARQSIDVGKTS [G5T]
[1]
  scaled log2 fold change: -0.0306
[2]
  scaled log2 fold change: 0.915

## MAAAWGARLLRAASAVLGGPAGRWLHHAGSRAGSSGLLRNRGPGGSAEASRSLSVSARARSSSEDKITVHFINRDGETLTTKGKVGDSLLDVVVENNLDIDGFGACEGTLACSTCHLIFEDHIYEKLDAITDEENDMLDLAYGLTDRSRLGCQICLTKSMDNMTVRVPETVADARQSIDVGKTS [G5W]
[1]
  scaled log2 fold change: 0.225
[2]
  scaled log2 fold change: 0.578

## MAAALGARLLRAASAVLGGPAGRWLHHAGSRAGSSGLLRNRGPGGSAEASRSLSVSARARSSSEDKITVHFINRDGETLTTKGKVGDSLLDVVVENNLDIDGFGACEGTLACSTCHLIFEDHIYEKLDAITDEENDMLDLAYGLTDRSRLGCQICLTKSMDNMTVRVPETVADARQSIDVGKTS [G5L]
[1]
  scaled log2 fold change: 0.0231
[2]
  scaled log2 fold change: -0.373

## MAAAFGARLLRAASAVLGGPAGRWLHHAGSRAGSSGLLRNRGPGGSAEASRSLSVSARARSSSEDKITVHFINRDGETLTTKGKVGDSLLDVVVENNLDIDGFGACEGTLACSTCHLIFEDHIYEKLDAITDEENDMLDLAYGLTDRSRLGCQICLTKSMDNMTVRVPETVADARQSIDVGKTS [G5F]
[1]
  scaled log2 fold change: 0.228
[2]
  scaled log2 fold change: 0.695

## MAAAVGARLLRAASAVLGGPAGRWLHHAGSRAGSSGLLRNRGPGGSAEASRSLSVSARARSSSEDKITVHFINRDGETLTTKGKVGDSLLDVVVENNLDIDGFGACEGTLACSTCHLIFEDHIYEKLDAITDEENDMLDLAYGLTDRSRLGCQICLTKSMDNMTVRVPETVADARQSIDVGKTS [G5V]
[1]
  scaled log2 fold change: 0.268
[2]
  scaled log2 fold change: -0.396

## MAAAKGARLLRAASAVLGGPAGRWLHHAGSRAGSSGLLRNRGPGGSAEASRSLSVSARARSSSEDKITVHFINRDGETLTTKGKVGDSLLDVVVENNLDIDGFGACEGTLACSTCHLIFEDHIYEKLDAITDEENDMLDLAYGLTDRSRLGCQICLTKSMDNMTVRVPETVADARQSIDVGKTS [G5K]
[1]
  scaled log2 fold change: 0.104
[2]
  scaled log2 fold change: 0.00379

## MAAAYGARLLRAASAVLGGPAGRWLHHAGSRAGSSGLLRNRGPGGSAEASRSLSVSARARSSSEDKITVHFINRDGETLTTKGKVGDSLLDVVVENNLDIDGFGACEGTLACSTCHLIFEDHIYEKLDAITDEENDMLDLAYGLTDRSRLGCQICLTKSMDNMTVRVPETVADARQSIDVGKTS [G5Y]
[1]
  scaled log2 fold change: -0.325
[2]
  scaled log2 fold change: 0.00599

## MAAANGARLLRAASAVLGGPAGRWLHHAGSRAGSSGLLRNRGPGGSAEASRSLSVSARARSSSEDKITVHFINRDGETLTTKGKVGDSLLDVVVENNLDIDGFGACEGTLACSTCHLIFEDHIYEKLDAITDEENDMLDLAYGLTDRSRLGCQICLTKSMDNMTVRVPETVADARQSIDVGKTS [G5N]
[1]
  scaled log2 fold change: 0.381
[2]
  scaled log2 fold change: 0.127

## MAAAPGARLLRAASAVLGGPAGRWLHHAGSRAGSSGLLRNRGPGGSAEASRSLSVSARARSSSEDKITVHFINRDGETLTTKGKVGDSLLDVVVENNLDIDGFGACEGTLACSTCHLIFEDHIYEKLDAITDEENDMLDLAYGLTDRSRLGCQICLTKSMDNMTVRVPETVADARQSIDVGKTS [G5P]
[1]
  scaled log2 fold change: 0.0147
[2]
  scaled log2 fold change: -0.46

## MAAAIGARLLRAASAVLGGPAGRWLHHAGSRAGSSGLLRNRGPGGSAEASRSLSVSARARSSSEDKITVHFINRDGETLTTKGKVGDSLLDVVVENNLDIDGFGACEGTLACSTCHLIFEDHIYEKLDAITDEENDMLDLAYGLTDRSRLGCQICLTKSMDNMTVRVPETVADARQSIDVGKTS [G5I]
[1]
  scaled log2 fold change: 0.0847
[2]
  scaled log2 fold change: -0.0288

## MAAASGARLLRAASAVLGGPAGRWLHHAGSRAGSSGLLRNRGPGGSAEASRSLSVSARARSSSEDKITVHFINRDGETLTTKGKVGDSLLDVVVENNLDIDGFGACEGTLACSTCHLIFEDHIYEKLDAITDEENDMLDLAYGLTDRSRLGCQICLTKSMDNMTVRVPETVADARQSIDVGKTS [G5S]
[1]
  scaled log2 fold change: 0.203
[2]
  scaled log2 fold change: -0.121

## MAAARGARLLRAASAVLGGPAGRWLHHAGSRAGSSGLLRNRGPGGSAEASRSLSVSARARSSSEDKITVHFINRDGETLTTKGKVGDSLLDVVVENNLDIDGFGACEGTLACSTCHLIFEDHIYEKLDAITDEENDMLDLAYGLTDRSRLGCQICLTKSMDNMTVRVPETVADARQSIDVGKTS [G5R]
[1]
  scaled log2 fold change: -0.43
[2]
  scaled log2 fold change: -0.244

## MAAAMGARLLRAASAVLGGPAGRWLHHAGSRAGSSGLLRNRGPGGSAEASRSLSVSARARSSSEDKITVHFINRDGETLTTKGKVGDSLLDVVVENNLDIDGFGACEGTLACSTCHLIFEDHIYEKLDAITDEENDMLDLAYGLTDRSRLGCQICLTKSMDNMTVRVPETVADARQSIDVGKTS [G5M]
[1]
  scaled log2 fold change: 0.245
[2]
  scaled log2 fold change: -0.441

## MAAAQGARLLRAASAVLGGPAGRWLHHAGSRAGSSGLLRNRGPGGSAEASRSLSVSARARSSSEDKITVHFINRDGETLTTKGKVGDSLLDVVVENNLDIDGFGACEGTLACSTCHLIFEDHIYEKLDAITDEENDMLDLAYGLTDRSRLGCQICLTKSMDNMTVRVPETVADARQSIDVGKTS [G5Q]
[1]
  scaled log2 fold change: 0.0157
[2]
  scaled log2 fold change: -0.646

## MAAAHGARLLRAASAVLGGPAGRWLHHAGSRAGSSGLLRNRGPGGSAEASRSLSVSARARSSSEDKITVHFINRDGETLTTKGKVGDSLLDVVVENNLDIDGFGACEGTLACSTCHLIFEDHIYEKLDAITDEENDMLDLAYGLTDRSRLGCQICLTKSMDNMTVRVPETVADARQSIDVGKTS [G5H]
[1]
  scaled log2 fold change: 0.507
[2]
  scaled log2 fold change: 1.08

## MAAAGAARLLRAASAVLGGPAGRWLHHAGSRAGSSGLLRNRGPGGSAEASRSLSVSARARSSSEDKITVHFINRDGETLTTKGKVGDSLLDVVVENNLDIDGFGACEGTLACSTCHLIFEDHIYEKLDAITDEENDMLDLAYGLTDRSRLGCQICLTKSMDNMTVRVPETVADARQSIDVGKTS [G6A]
[1]
  scaled log2 fold change: 0.239
[2]
  scaled log2 fold change: -0.652

— the supplement of paper PMC12855868
